In patent publication US20080317723A1, “LYMPHATIC ENDOTHELIAL CELLS MATERIALS AND METHODS” (VEGENICS LIMITED, priority 2001, published 2008):

Molecular target: T1, VEGFR-3/EpoR (Homo sapiens, UniProt P35916)
T1 construct: a chimeric receptor containing the extracellular domain of human VEGFR-1, VEGFR-2 or VEGFR-3 fused with the transmembrane and cytoplasmic domains; expressed in transfected cells; host or cells: murine Ba/F3 pre-B cells, stably transfected
T1 sequence (P35916 25-775 limits assumed): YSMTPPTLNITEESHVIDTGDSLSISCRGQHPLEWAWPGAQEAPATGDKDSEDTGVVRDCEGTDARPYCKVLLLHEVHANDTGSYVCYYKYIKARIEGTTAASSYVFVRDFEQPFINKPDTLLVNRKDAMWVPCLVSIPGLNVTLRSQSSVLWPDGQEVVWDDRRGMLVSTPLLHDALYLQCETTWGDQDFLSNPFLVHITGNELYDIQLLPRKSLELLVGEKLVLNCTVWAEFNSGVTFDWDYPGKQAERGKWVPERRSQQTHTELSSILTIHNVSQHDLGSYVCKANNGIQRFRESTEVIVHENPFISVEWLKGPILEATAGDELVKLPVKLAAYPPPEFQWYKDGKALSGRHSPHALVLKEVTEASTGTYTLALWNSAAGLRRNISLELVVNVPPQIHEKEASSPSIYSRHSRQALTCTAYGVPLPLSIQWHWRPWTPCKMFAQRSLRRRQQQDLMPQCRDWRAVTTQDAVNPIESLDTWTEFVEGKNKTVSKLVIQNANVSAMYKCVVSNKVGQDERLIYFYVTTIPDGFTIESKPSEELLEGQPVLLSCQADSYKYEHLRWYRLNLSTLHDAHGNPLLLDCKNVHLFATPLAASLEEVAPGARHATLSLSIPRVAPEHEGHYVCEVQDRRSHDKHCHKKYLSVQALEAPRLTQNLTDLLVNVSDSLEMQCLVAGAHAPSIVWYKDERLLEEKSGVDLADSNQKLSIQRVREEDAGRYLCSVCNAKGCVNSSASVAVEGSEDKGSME
Test: Ba/F3 bioassay, viability (MTT) of VEGFR-3/EpoR cells
Format: cell-based
Description: FIG. 1A-FIG. 1C. Analysis of the receptor-specificities of different VEGFs using the Ba/F3 bioassay. Measurement of the viability of Ba/F3 cells expressing the chimeric receptors VEGFR-1/EpoR (FIG. 1A), VEGFR-2/EpoR (FIG. 1B) or VEGFR-3/EpoR (FIG. 1C) in the presence of different VEGFs at indicated concentrations. Cell viability was determined using the MTT assay. Data represent the mean values from triplicate assays (mean±s.d.). FIG. 1D-FIG. 1G. Biosensor analysis of the interaction of VEGF-C (FIG. 1D, FIG. 1E) and VEGF-C156S (FIG. 1F, FIG. 1G) with VEGFR-3 (FIG. 1D, FIG. 1F) and VEGFR-2 (FIG. 1E, FIG. 1G). Chimeric receptor proteins were immobilized onto a carboxymethylated dextran surface. Growth factors were injected over the surface at a flow rate of 20 μl/min at the indicated concentrations. The sensorgrams shown have been subtracted with the corresponding signal obtained when the same sample was passed over a blank control channel.
Bioassay for VEGFR stimulation. […]
VEGF is an endothelial cell mitogen which has been also shown to protect endothelial cells from starvation and TNF-a induced apoptosis via activation of VEGFR-2 (Gerber et al, J. Biol. Chem., 273:30336-30343, 1998; Spyridopoulos et al., J. Mol. Cell. Cardiol., 29:1321-1330, 1997). […] The specificities of the growth factors used were determined using a cell survival bioassay. […]

B1: VEGF-C156S: VEGFR-3 specific mutant form of VEGF-C, cysteine 156 changed into serine; recombinant human (Thr103 to Ile225) (protein, UniProt P49767 103-225, looked up, variant C156S)
chain: TEETIKFAAAHYNTEILKSIDNEWRKTQCMPREVCIDVGKEFGVATNTFFKPPSVSVYRCGGCCNSEGLQCMNTSTSYLSKTLFEITVPLSQGPKPVTISFANHTSCRCMSKLDVYRQVHSII
concentration which gave maximal viability in VEGFR-3/EpoR cell survival assays (Ba/F3 VEGFR-3/EpoR cells): 500 ng/mL | survival of VEGFR-3/EpoR expressing cells (Ba/F3 cells, FIG. 1C): VEGFR-3/EpoR expressing cells survived
